In article PMC5602538, “Assessment of the Drug Interaction Potential of Unconjugated and GalNAc3-Conjugated 2′-MOE-ASOs” (Molecular Therapy. Nucleic Acids, 2017):
{GalNAc3} = trishexylamino-C6 triantennary GalNAc conjugate; e = 2'-O-(2-methoxyethyl) (MOE); d = 2'-deoxy (DNA)

Assays:
BSEP = test system: T1, BSEP; experiment: BSEP inhibition study in Sf9 membrane vesicles; assay type: in vitro ADME; conditions: 100 μM ASO, 1 μM taurocholate
T1 construct: purchased Life Technologies; host or cells: Sf9 cells (membrane vesicles)
Method: The test system included a 96-well flat bottom plate containing a suspension of vesicles and a 96-well glass fiber filtration plate. Transport experiments were initiated with the addition of Mg-ATP (for ATP-dependent BSEP uptake) or AMP (non-ATP-dependent uptake) to appropriate wells. Preparation of the flat-bottom plates included incubation with blocking buffer for 60 min at 37°C with orbital shaking at 120 rpm. After 60 min, the blocking buffer was completely removed and assay uptake buffer solutions were added. For BSEP inhibition studies, solutions contained 1 μM [^3H]-taurocholic acid as a substrate and either assay vehicle, test article (at 100 μM), or reference inhibitor (300 μM rifampicin). For BSEP substrate studies, solutions contained either 1 μM [^3H]-taurocholic acid or 10 μM test article. […] These samples were counted using a 1450 Microbeta (Perkin-Elmer). […] The test article was quantitated by LC-MS.
Signal to noise for the BSEP probe substrate was calculated by dividing the uptake of the probe substrate in BSEP-expressing vesicles in the presence of ATP by the uptake of the BSEP substrate in the vesicles in the presence of AMP. Percent inhibition in the presence of the test article or the reference inhibitors was calculated as: %inhibition=100−(100×(ATP−dependent,transportor−mediatedaccumulation)withinhibitor/(ATP−dependent,transportor−mediatedaccumulation)withoutinhibitor).

CYP1A2 mRNA = CYP1A2 mRNA induction in plated human hepatocytes; conditions: ASO 100 μM, human hepatocytes 72 hr, vs PBS 1% vehicle, mean ± SD of triplicate
Method: (§1) Upon receipt, sandwich-cultured cryopreserved human hepatocytes (with Matrigel) plated on collagen-coated 24-well plates were inspected under a microscope for general morphology and viability. Fresh culture medium (OptiCulture Hepatocyte Media) was added to each plate that passed the visual inspection. The plates were then placed in an incubator set to 37°C with 5% carbon dioxide (CO2) for overnight acclimation. […] During this time, cells in parallel wells were also treated with 50.0 μM omeprazole (inducer of CYP1A2), 1,000 μM phenobarbital (inducer of CYP2B6), or 10.0 μM rifampicin (inducer of CYP3A4) in triplicate, respectively.
(§2) After collection of the supernatant for catalytic analysis, the remaining cells were washed and lysed with QIAGEN Buffer RLT from the QIAGEN RNeasy Kit. […]
(§3) The activity of each CYP enzyme was measured by comparing the peak area ratio of the corresponding product to the peak area ratio of the internal standard. The fold induction was calculated by dividing the peak area ratio of each individual well from the treatment group by the mean of the peak area ratios obtained from the vehicle control wells. […] The ΔCƬ was calculated as follows: ΔCƬ = CƬ (CYP) − CƬ (GAPDH). […] The ΔΔCƬ was calculated as follows: ΔΔCƬ = Δ CƬ (Treatment) − Δ CƬ (Vehicle). The fold induction of the target CYP was calculated using the following equation: Fold=2^-ΔΔCT.

CYP2B6 = CYP2B6 enzyme activity induction in plated human hepatocytes; conditions: ASO 100 μM, human hepatocytes 72 hr, vs PBS 1% vehicle, mean ± SD of triplicate
Method: as §1
(§4) The plates were then incubated at 37°C with 5% CO2 for 60 min. […] Aliquots of the supernatants were analyzed by LC-MS/MS for the formation of acetaminophen, hydroxyl-bupropion, or hydroxyl-midazolam as markers for enzyme activity of CYP1A2, CYP2B6, and CYP3A4, respectively.
as §3, with “The fold induction of the target CYP was calculated using the following equation: Fold=2^-ΔΔCT.” left out

CYP2B6 mRNA = CYP2B6 mRNA induction in plated human hepatocytes; conditions: ASO 100 μM, human hepatocytes 72 hr, vs PBS 1% vehicle, mean ± SD of triplicate
Method: as §1, §2, §3

CYP3A4 = conditions: ASO 100 μM, human hepatocytes 72 hr, vs PBS 1% vehicle, mean ± SD of triplicate
Method: as §1, §4
as §3, with “The fold induction of the target CYP was calculated using the following equation: Fold=2^-ΔΔCT.” left out

CYP3A4 mRNA = CYP3A4 mRNA induction in plated human hepatocytes; conditions: ASO 100 μM, human hepatocytes 72 hr, vs PBS 1% vehicle, mean ± SD of triplicate
Method: as §1, §2, §3

Substance	Enhancement of probe substrate uptake, BSEP (BSEP)	Fold induction of CYP1A2 mRNA (CYP1A2 mRNA)	Fold induction of CYP2B6 enzyme activity (CYP2B6)	Fold induction of CYP2B6 mRNA (CYP2B6 mRNA)	Fold induction of CYP3A4 enzyme activity (CYP3A4)	Fold induction of CYP3A4 mRNA (CYP3A4 mRNA)
ISIS 304801: 20-mer (5-10-5) 2′-MOE gapmer PS backbone antisense inhibitor of apoC-III, sequence AGCTTCTTGTCCAGCTTTAT (sugars from the 5' end e5 d10 e5, all phosphorothioate, methylation of C not given here)	21.0%	–	–	–	–	–
ISIS 681257: 20-mer 2′-MOE gapmer PS/PO mixed backbone ASO conjugated to 5′-trishexylamino GalNAc3, targets Lp(a), sequence TGCTCCGTTGGTGCTTGTTC (5' {GalNAc3}, sugars by position and backbone not given here; 2'-MOE gapmer with mixed PS/PO backbone)	–	1.71 ± 0.0853 fold	1.20 ± 0.389 fold	1.36 ± 0.347 fold	1.67 ± 0.310 fold	0.213 ± 0.0471 fold
